Patent publication US9327008B2, “Cell-permeant peptide-based inhibitor of kinases” (Purdue Research Foundation, priority 2008, dated 2016)

Assays:
Assay type in all cases: biochemical
MK2 = MK2 (Homo sapiens, UniProt P49137); test: Millipore radiometric IC50 and kinase activity assay, MK2; parameters: purchased Millipore (assay service); conditions: for MK2 Kinase Activity: SD of 2 samples
Method: (§1) A commercial radiometric assay service (Millipore, Billerica, Mass.) was used to test the specificity and potency of peptides containing a coupled transduction domain and therapeutic domain, hereinafter “complete peptides”). In these assays, if the kinase is not inhibited by an inhibitor peptide, a positively charged substrate is phosphorylated with a radiolabeled phosphate group from an ATP.
(§2) IC50 values for inhibitor peptides were determined using Millipore's IC50Profiler Express service. The IC50 value was estimated from a 10-point curve of one-half log dilutions. For peptides tested for specificity, the concentration of the peptides that inhibited approximately 95% of MK2 activity was chosen to profile against a battery of kinases related to MK2, cell viability, or human disease from MilliporeKinaseProfiler service. In both assays, compounds were supplied in dimethylsulfoxide (DMSO). Every kinase activity measurement was conducted in duplicate.
(§3) Therapeutic inhibitor peptides were assayed for activity against human kinases related to MK2, cell viability, or human disease. The assays were performed using concentrations of therapeutic inhibitor peptides that yielded 2% to 8% of normal MK2 activity. Error is reported as the standard deviation between 2 samples, and “c” is rat AMPK whereas all other kinases used are human kinases.
(§4) Additional therapeutic inhibitor peptide variants were assayed for activity against several human kinases representative of several families of kinases. These kinases included: MK2; MK3; CaMKI (calcium/calmodulin-dependent protein kinase); PRAK (p38 regulated/activated protein kinase, also known as mitogen-activated protein kinase activated protein kinase 5 (MAPKAPK5)); SAPK2a (p38α); IRAK4 (IL-1 receptor (IL-1R)-associated kinase); MLCK (myosin light chain kinase); PKBβ (protein kinase B); PCKδ (protein kinase C); and ROCK-I (Rho-associated serine/threonine kinase).

SAPK2a (p38α) = target: T1, SAPK2a (p38α) (Homo sapiens, UniProt Q16539); test: Millipore radiometric kinase activity assay, SAPK2a (h); conditions: for SAPK2a (p38α) Kinase Activity: peptide inhibitor 300 μM, SD of 2 samples
T1 construct: purchased Millipore (radiometric assay service)
T1 sequence (Q16539 whole entry): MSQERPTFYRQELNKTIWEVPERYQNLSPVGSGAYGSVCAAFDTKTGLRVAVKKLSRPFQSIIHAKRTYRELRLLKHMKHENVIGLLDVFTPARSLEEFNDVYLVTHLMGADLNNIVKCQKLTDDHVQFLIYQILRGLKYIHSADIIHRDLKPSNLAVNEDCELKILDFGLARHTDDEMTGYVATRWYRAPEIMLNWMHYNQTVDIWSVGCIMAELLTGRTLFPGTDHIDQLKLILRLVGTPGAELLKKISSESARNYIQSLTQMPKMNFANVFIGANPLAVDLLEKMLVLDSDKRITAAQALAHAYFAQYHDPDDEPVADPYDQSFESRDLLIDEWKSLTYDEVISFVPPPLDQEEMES
Method: as §1
(§5) In a final reaction volume of 25 μL, SAPK2a (h) (5-10 mU) is incubated with 25 mM Tris pH 7.5, 0.02 mM EGTA, 0.33 mg/mL myelin basic protein, 10 mM MgAcetate and [γ-^33P-ATP] (specific activity approx. 500 cpm/pmol, concentration as required). The reaction is initiated by the addition of the MgATP mix. After incubation for 40 minutes at room temperature, the reaction is stopped by the addition of 5 μL of a 3% phosphoric acid solution. 10 μL of the reaction is then spotted onto a P30 filtermat and washed three times for 5 minutes in 75 mM phosphoric acid and once in methanol prior to drying and scintillation counting.
as §2, §3, §4

MK3 = target: T2, MK3 (Homo sapiens, UniProt Q16644); test: Millipore radiometric kinase activity assay, MK3; conditions: SD of 2 samples
T2 construct: purchased Millipore (assay service)
T2 sequence (Q16644 whole entry): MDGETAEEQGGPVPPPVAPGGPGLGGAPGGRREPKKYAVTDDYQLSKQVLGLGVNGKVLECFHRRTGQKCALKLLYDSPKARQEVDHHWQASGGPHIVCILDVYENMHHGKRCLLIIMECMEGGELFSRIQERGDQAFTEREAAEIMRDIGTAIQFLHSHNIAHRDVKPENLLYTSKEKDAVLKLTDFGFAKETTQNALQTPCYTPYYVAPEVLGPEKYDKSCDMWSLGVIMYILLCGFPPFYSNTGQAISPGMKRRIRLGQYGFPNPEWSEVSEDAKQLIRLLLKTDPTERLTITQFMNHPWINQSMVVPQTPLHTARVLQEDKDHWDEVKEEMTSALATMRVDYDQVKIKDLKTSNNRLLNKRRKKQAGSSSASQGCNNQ
Method: as §1, §2, §4

MLCK = target: T3, MLCK (Homo sapiens, UniProt Q9H1R3); test: Millipore radiometric kinase activity assay, MLCK (h); conditions: for MLCK Kinase Activity: peptide inhibitor 300 μM, SD of 2 samples
T3 construct: purchased Millipore (radiometric assay service)
Method: as §1
as §5, with “μL, MLCK” for “μL, SAPK2a”, “with 8” for “with 25”, “mM MOPS” for “mM Tris”, “pH 7.0, 0.2” for “pH 7.5, 0.02”, “mM EDTA, 0.5 mM CaCl2, 16 μg/mL calmodulin, 250 μM […] [SEQ ID NO: 52],” for “mM EGTA, 0.33 mg/mL myelin basic protein,”
as §2, §3, §4

PRAK = target: T4, PRAK (Homo sapiens, UniProt Q8IW41); test: Millipore radiometric kinase activity assay, PRAK (h); conditions: SD of 2 samples
T4 construct: purchased Millipore (assay service)
T4 sequence (Q8IW41 1-473): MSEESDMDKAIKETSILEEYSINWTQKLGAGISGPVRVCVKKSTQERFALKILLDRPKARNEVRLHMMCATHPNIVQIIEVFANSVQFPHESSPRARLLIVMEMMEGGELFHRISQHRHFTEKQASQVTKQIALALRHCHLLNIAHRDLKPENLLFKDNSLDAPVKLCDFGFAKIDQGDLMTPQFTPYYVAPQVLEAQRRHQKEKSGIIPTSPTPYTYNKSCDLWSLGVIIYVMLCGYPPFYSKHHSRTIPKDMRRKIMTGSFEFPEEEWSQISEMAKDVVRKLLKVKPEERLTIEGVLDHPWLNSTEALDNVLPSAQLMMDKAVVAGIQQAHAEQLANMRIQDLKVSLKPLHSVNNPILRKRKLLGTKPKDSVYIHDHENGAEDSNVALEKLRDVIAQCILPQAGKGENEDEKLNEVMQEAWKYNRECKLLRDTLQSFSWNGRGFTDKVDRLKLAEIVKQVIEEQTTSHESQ
Method: as §1
as §5, with “μL, PRAK” for “μL, SAPK2a”, “with 50” for “with 25”, “mM Naβ-glycerophosphate” for “mM Tris”, “7.5, 0.1” for “7.5, 0.02”, “EGTA, 30 μM […] [SEQ ID NO: 65],” for “EGTA, 0.33 mg/mL myelin basic protein,”, “in 50” for “in 75”
as §2, §4

PKCδ = target: T5, PKCδ (Homo sapiens, UniProt Q05655); test: Millipore radiometric kinase activity assay, PKCδ (h); conditions: for PKCδ Kinase Activity: peptide inhibitor 300 μM, SD of 2 samples
T5 construct: purchased Millipore (radiometric assay service)
T5 sequence (Q05655 whole entry): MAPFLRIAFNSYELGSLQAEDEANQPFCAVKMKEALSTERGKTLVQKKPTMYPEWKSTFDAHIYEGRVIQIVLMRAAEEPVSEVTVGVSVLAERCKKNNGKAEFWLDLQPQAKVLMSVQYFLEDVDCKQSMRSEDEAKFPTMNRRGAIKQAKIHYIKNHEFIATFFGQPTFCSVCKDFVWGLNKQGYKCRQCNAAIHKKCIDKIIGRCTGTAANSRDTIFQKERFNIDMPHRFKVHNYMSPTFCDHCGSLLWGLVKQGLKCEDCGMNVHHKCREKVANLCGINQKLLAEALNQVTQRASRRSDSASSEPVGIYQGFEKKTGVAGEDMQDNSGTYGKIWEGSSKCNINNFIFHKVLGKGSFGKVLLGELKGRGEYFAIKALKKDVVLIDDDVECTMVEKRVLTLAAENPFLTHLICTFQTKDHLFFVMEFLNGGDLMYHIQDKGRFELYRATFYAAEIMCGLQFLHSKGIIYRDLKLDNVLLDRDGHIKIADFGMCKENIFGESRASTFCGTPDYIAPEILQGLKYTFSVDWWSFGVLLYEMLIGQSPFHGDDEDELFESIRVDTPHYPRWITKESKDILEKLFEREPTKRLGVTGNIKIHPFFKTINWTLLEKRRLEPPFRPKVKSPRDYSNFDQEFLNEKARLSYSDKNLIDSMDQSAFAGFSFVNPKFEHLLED
Method: as §1
as §5, with “μL, PKCδ” for “μL, SAPK2a”, “with 20” for “with 25”, “mM HEPES” for “mM Tris”, “pH 7.4, 0.03% Triton X-100, 0.1” for “pH 7.5, 0.02 mM EGTA, 0.33”, “mg/mL phosphatidylserine, 10 μg/mL diacylglycerol, 50 μM […] [SEQ ID NO: 61],” for “mg/mL myelin basic protein,”
as §2, §3, §4

[1] = peptide 100 μM, listed as KAFAKLAARLYRLARQLGVAA
[2] = peptide 30 μM, listed as WLRRIKAWLRRI-

Chain of MK2 (P49137 whole entry, the tested form may be a part): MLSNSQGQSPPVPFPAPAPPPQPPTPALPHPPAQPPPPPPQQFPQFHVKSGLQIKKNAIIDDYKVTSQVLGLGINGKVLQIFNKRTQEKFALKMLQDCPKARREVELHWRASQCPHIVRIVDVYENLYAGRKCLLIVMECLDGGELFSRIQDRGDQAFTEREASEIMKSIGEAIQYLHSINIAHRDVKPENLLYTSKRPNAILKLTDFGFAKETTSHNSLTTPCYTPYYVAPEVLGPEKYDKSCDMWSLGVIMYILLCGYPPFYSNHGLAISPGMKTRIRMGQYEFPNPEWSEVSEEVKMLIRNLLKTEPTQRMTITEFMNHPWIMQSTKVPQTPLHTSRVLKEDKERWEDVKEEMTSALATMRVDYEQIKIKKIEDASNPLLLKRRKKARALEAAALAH

Sequence	MK2 Kinase Activity (MK2; peptide inhibitor 100 μM)	SAPK2a Kinase Activity (%) (+SD %) (SAPK2a (p38α); peptide 100 μM)	MK3 Kinase Activity (MK3; peptide inhibitor 100 μM)	MLCK Kinase Activity (%) (+SD %) (MLCK; peptide 100 μM)	PRAK Kinase Activity (PRAK; peptide inhibitor 100 μM)	PKCδ Kinase Activity (%) (+SD %) (PKCδ; peptide 100 μM)	MK2 Kinase Activity (MK2; peptide inhibitor 300 μM)	SAPK2a (p38α) Kinase Activity (SAPK2a (p38α))	MK3 Kinase Activity (MK3; peptide inhibitor 300 μM)	MLCK Kinase Activity (MLCK)	PRAK Kinase Activity (PRAK; peptide inhibitor 300 μM)	PKCδ Kinase Activity (PKCδ)	other results
FAKLAARLYRKALARQLGVAA	5(2) %	30(6) %	10(1) %	1(1) %	131(4) %	40(2) %							inhibition of SAPK2a activity (in words) (SAPK2a (p38α); Table 5, 100 μM): inhibited activity of SAPK2a
YARAAARQARAKALNRQLGVAA							10(3) %	100(6) %	19(3) %	66(9) %	81(3) %	105(2) %	
KAFAKLAARLYRKALARQLGVAA	8(1) %	59 (8) %	17(1) %	2 (0) %	148(4) %	24 (3) %							SAPK2a Kinase Activity (%) (+SD %) (SAPK2a (p38α); [1]): 59(8) %; MLCK Kinase Activity (%) (+SD %) (MLCK; [1]): 2(0) %; PKCδ Kinase Activity (%) (+SD %) (PKCδ; [1]): 24(3) %
YARAAARQARAKALARQLGVAA							−7(0) %	66(3) %	5(1) %	9(0) %	86(2) %	101(3) %	
WLRRIKAWLRRIKALNRQLGVAA		30 (6) %		1 (1) %		40 (2) %							MK2 Kinase Activity (MK2; peptide inhibitor 30 μM): 2(1) %; fold lower IC50 than the therapeutic inhibitor peptide incorporating PTD YARAAARQARA (FIG. 2) (MK2; same therapeutic domain KALNRQLGVAA): greater than 30 fold; SAPK2a Kinase Activity (%) (+SD %) (SAPK2a (p38α); peptide 30 μM): 61(7) %; SAPK2a Kinase Activity (%) (+SD %) (SAPK2a (p38α); [2]): 61 (7) %; MK3 Kinase Activity (MK3; peptide inhibitor 30 μM): 16(2) %; MLCK Kinase Activity (%) (+SD %) (MLCK; peptide 30 μM): 4(1) %; MLCK Kinase Activity (%) (+SD %) (MLCK; [2]): 4 (1) %; PRAK Kinase Activity (PRAK; peptide inhibitor 30 μM): 67(9) %; PKCδ Kinase Activity (%) (+SD %) (PKCδ; peptide 30 μM): 11(0) %; PKCδ Kinase Activity (%) (+SD %) (PKCδ; [2]): 11 (0) %
